# Data from paper PMC4788467 (Leukemia, 2015).
# Numbering of substitutions follows the chain as printed. Names may count otherwise.
# T1: WT1 126-134 (RMFPNAPYL) peptide alone (human)
# T1 chain: RMFPNAPYL
# B1: Q2L scFv (scFv, V domains shown)
# VH: EVQLLESGGGLVQPGGSLRLSCAASGFTFSSYAMSWVRQAPGKGLEWVSLIDPWGQETLYADSVKGRFTISRDNSKNTLYLQMNSLRAEDTAVYYCAKLTGRFDYWGQGTLVTVSS
# VL: DIQMTQSPSSLSASVGDRVTITCRASQSISSYLNWYQQKPGKAPKLLIYSASLLQSGVPSRFSGSGSGTDFTLTISSLQPEDFATYYCQQGPGTPNTFGQGTKVEIK
# B2: Q2L scFv-Fc (Fc fusion)
# VH: B1 VH
# VL: B1 VL
# B3: S3.6 scFv (scFv, V domains shown)
# VH: B1 VH
# VL: B1 VL with S31N, L53Q, D70V
# B4: S3.1 scFv (scFv, V domains shown)
# VH: B1 VH with R87G
# VL: B1 VL with L53Q, S77N
# B5: Q1L scFv (scFv, V domains shown)
# VH: B1 VH
# VL: B1 VL with L53Q
# B6: S3.3 scFv (scFv, V domains shown)
# VH: B1 VH
# VL: B1 VL with D1N, S65N
# Target: HLA-A2/WT1 187-195 (…) monomer (Homo sapiens, HLA-A*02:01, biotin (the complex is biotinylated; site not stated))
# Test: ELISA
row,Binder,binding result
1,B1,no binding
2,B2,no binding

# Target: HLA-A2/WT1 235-243 (…) monomer (Homo sapiens, HLA-A*02:01, biotin (the complex is biotinylated; site not stated))
# Test: ELISA
row,Binder,binding result
1,B1,no binding
2,B2,no binding

# Target: biotinylated soluble HLA-A2/WT1_(126) (…) complex (Homo sapiens, HLA-A*02:01, biotin (the complex is biotinylated; site not stated))
# Test: SPR
Binder,Kd [nM],koff [s⁻¹],kon [M⁻¹ s⁻¹]
B3,14.1,0.00177,126000
B4,12.9,0.00191,148000
B5,58.3,–,94300
B1,3.08,0.000355,115000
B6,–,5.35e-05,22000
B2,0.002,1.15e-06,484000

# Target: T1, WT1 126-134 (RMFPNAPYL) peptide alone
# Test: ELISA
row,Binder,binding result
1,B1,no binding
2,B2,no binding
